Reference: a protein production outcome set (Wang et al. 2014)

Experiment: label from the status in PepcDB records

Row | Sequence | protein production
1 | MKNIVVIGAGNIGSAIAWMLAATGDYRITVADRSADQLANVPAHERVDTEIVDIADRPALEALLKGKFAVLSAAPFHLTAGIAEAAVAVGTHYLDLTEDVESTRKVKALAETAESALIPQCGLAPGFISIVAADLAARFDKLDSVRMRVGALPQYPSNALNYNLTWSTDGLINEYIEPCEAIVEGRLTAVPALEEREEFSLDGVTYEAFNTSGGLGTLCATLEGKVRTMNYRTIRYPGHVAIMKALLNDLNLRNRRDVLKDLFENALPGTMQDVVIVFVTVCGTRNGRFLQETYANKVYAGPVSGRMMSAIQITTAAGICTVLDLLAEGSLPQKGFVRQEEVALPKFLENRFGRYYGAHEPLARVG | failed
2 | MAGLINKIGDALHIGGGNKEGEHKKEEEHKKHVDEHKSGEHKEGIVDKIKDKIHGGEGKSHDGEGKSHDGEKKKKKDKKEKKHHDDGHHSSSSDSDSD | failed
3 | MQEIEIFCDGSSLGNPGPGGYAAILRYKDKEKTISGGEEFTTNNRMELRALNEALKILKRPCRITLYSDSQYVCQAINVWLANWQKKNFSKVKNVDLWKEFLEVSKGHSIVAVWIKGHNGHAENERCDSLAKLEAQKRVKTTT | failed
4 | MTQNNILLISGAILPVIITVIIGYISGKRKDFNWQQAGDINKIVMLYALPLSIFSNMVMTPRHIVMTMGPVAVAIILALILSFVIPLLVARYLFRRDLALSTLQALAIGSPAVPFIGTSVLAFLFGTVSASLITVSSITQNVFQLPLVMILMSVATGDKSQHISFGARVVNAIKQPVVWSPVIALIIVLADIHIPQTISMSLGLLGKASGGLALFAAGIVLYTRSIVITTATIITVIARNILVPGACYLILLKMGFSMEQIKEVVLTMAIPVGSIAIIIAMQYKTGEQEMASTMALSIIASIITMGGFIFLTF | failed
5 | MIMARTSNIFARVEPEVKEQAEQVLEQLGIPMSSAVSMFLKQVVLQRGIPFEMKLPKDTPPSYSSLTKEQFNAEIEKGMLDIEAGRTYPMKSVEEEMKRDYGLLEHHHHHH | not failed
6 | MTGGLLVTGGSGAIGGALCRIAARQHPVWVGYGAGAGRARALAAEITQAGGRAEPLALPLQDPAALETALAALPEPPASLALCAWPAPFVAPFGRQGEDLALQAAALAGCHALIATAWRLWWRRAGGGHVLAVLSAASEPPVARHMAAYVAQKAALRALLAAAAAELGPAGLRVSVVAPGFVETPMLGAFDPRLLERARADAGGRFLSPERVAQALVAALDAPPPAGTVQDIHLAEEVESDEKQTA | failed
7 | MIIRQGFKFRLEASDTQGARLRVLCGHARFVWNQALAKCHEAADAEGEYVPRYETMAKWVTAWKREPDTEWLKEAYTDNLQQKLKDLDTGWQRYFKKVEGAQRPRFKKKGKSRDSVRFVNFQKYCKIDNRRVKLPAGLGWVRFRKSREIVGAIKNCTVGFEGGRWFISFQTEREVSEPAHPSASMIGVDMGVARFLTLSDGTFIEPVSAFKVNQGNLARAQRALARKVKFSANWQKQKAKINRLHSRIANLRRDTLHKASTQISNNHAMIVIEDLKVGNMSRSAKGDVDNPGVNVKAKSGLNRSILDQGWYEFRRQLEYKQAFRGGGVLAVPAHHTSQTCPECQHVSPDNRTSQARFECVKCGFKENADLVGAINIQARGHRVLACGEFGLPDSVKQEPVRNREEVAPSAAHAALGIPHRRC | failed
8 | MLIRRKIMQYNDMSKEELLVLKESLNKEYAEAKAKGLALDMSRGKPSAKQLDVSLGLLDTINSSSDLKSLDGTDCRNYGVLDGIPEAKKLMADMMGTTPDHVIVYGNASLNIMYDQISRAYTHGILGNTPWCKLDKVKFLCPVPGYDRHFAITERFGIEMINIPMSESGPDMGMVEEYVSKDASVKGIWCVPKYSNPQGYTYSEETVKRMAALKPAAEDFRIFWDNAYVIHDLYDDNKDEIADIISECEKAGNPDMVFEFASTSKVSFPGSGIAALATSANNIADIKKQLTIQTIGHDKLNQLRHVRFFKDINGLKEHMRKHAEFIRPKFEAVESVLEEELSGLGIGSWTEPKGGYFISFDAMDGCAKAIVAKCKEAGVKLTGAGATFPYGKDPKDSNIRIAPSFPTPEEMKQAADLFVLCVKLVSVEKLLENK | failed
9 | KRRMELVGEYAGGITLIEDFAHHPTAIRLTLGAIAEHYPGRRIIACFEPRSNTTSRNIFQHELSECFGDAAIVVLGKVNRPERYAPEERLDAALLCRELKANGKRVFAAGSENYPEDIVRFIEAEQQPGDVVVLLSNGSFSGLKEMLAESFQKNS | failed
10 | MKVSIIVPCYSVASKLPRCVHNLLAQTFTDWELILIDDGSTDNTWDICNSFTKNNAHIHAVHKENGGVSSARNTGIEIAKGEFITFIDSDDYVKPDYLQKLVEGQEADLVLCGFRSSTGIDFTPEPQYLIGDDLSKNIQAIVENDYLLYSPWCKLFRRDIIQKHQHRFDPEIRLGEDTIFCYKYLLYCSSIKVVASNSYFYDGVWGGYKKYVLTRQEVEYLDKAEITTLHDINQHFNCRIDLTYRGYHVAMLKGLYEKFRDYDTFEMYTRTHDVLPPEHFFANHKLSYIFWGIVELETLYVDKEYCAGKLFMQRLHHFFTIPTNQLLSYSYKMRLIHYLVKSKHYTMAHVLLIFLSILKHLEHHHHHH | failed
11 | MKVAIMGAGAVGCYYGGMLARAGHEVILIARPQHVQAIEATGLRLETQSFDEQVKVSASSDPSAVQGADLVLFCVKSTDTQSAALAMKPALAKSALVLSLQNGVENADTLRSLLEQEVAAAVVYVATEMAGPGHVRHHGRGELVIEPTSHGANLAAIFAAAGVPVETSDNVRGALWAKLILNCAYNALSAITQLPYGRLVRGEGVEAVMRDVMEECFAVARAEGVKLPDDVALAIRRIAETMPRQSSSTAQDLARGKRSEIDHLNGLIVRRGDALGIPVPANRVLHALVRLIEDKQQHG | not failed
12 | MKSNRLIKRLDWYIIKKFLGTYVFAIALIISIAVVFDFNEKMDKLMEHEAPWDKIIFEYYMNFIPYFSNLFSPLFVFIAVIFFTSKLAENSEIIAMFSTGMSFKRMMRPYMISAAIIAAATFMMSSFIIPKGSVTRLNFEDKYIKPKKVNSVRNVQLEVDSGVIAYIDNYNDGMKTGNRFSLDKFVDKKLVSHLTARRITYDTTTVNKWTIHDYMVRELDGLKEKITKGDRIDSIINMDPSDFLIMKNQQEMLTSPELSEYIEKQKRRGFANIKEFEIEYHKRIAMSFASFILTIIGVSLSSRKTKGGMGLHLGIGLGLSFSYILFQTITSTFAINGNVPPAIAVWIPNILYAGIAFYLYQKAPK | failed
13 | MTVSHHNASTARFYALRLLPGQEVFSQLHAFVQQNQLHAAWIAGCTGSLTDVALRYAGQEATTSLTGTFEVISLNGTLELTGEHLHLAVSDPYGAMLGGHMMPGCTVRTTLELVIGELPALTFSRQPCAISGYDELHISSRLEHHHHHH | not failed
14 | MTHTIIHPSSSKSSFESPAMAYRINCQQGQTHLLWVTLRLTAPQTDVLDLHLPVWTPGSYLVREYARHLQDFTAATADGTPLEWWKCTKNQWQVACTPGLELKVRYAIYAHELSVRTSHFDRSHAYFNPAAVCLYVPQYRDQPLTITIEAPPDWRVTTPLEGWGEDGRTFWAPNYDLLVDSPFEVGTHGIYTFEVDGKPHELAVWGKGNFDPKRAIADIQRIIETEASFFGGLPYDRYVFILHLTHKGYGGLEHLNSCSLIFHRFGFQQPEQYCRFLCLVAHEFFHLWNIKRIRPQAFEVFDYDSENYTTSLWFVEGVTSYFDQLIPLWAGLFDAPTYLKLLSDSLNRYFHTPGRFVQSLSAASFDAWIKLYRPDENSINSQMSYYLKGELVALLLDLRIRLNFNHQRSLLDVLRRLWQRYCETGEGYTPDELWQTIETVADENLSTWREQFIEGTVELPLQEWLTKVGLELVPQDALPYTGLQFQQEQGSLQIKAVLRDSPAEQAGLGAGDEIIALNGWRVKAQDWSERLREYTAGETIHLTWFHDQQLQSGDLILGEPQPHYRLQCRADATPSQRAHLEAWLGATATQL | failed
15 | PPLPLVYERIMLKGKGAMHSSTGLAIPASEIIDVMPPELLRFLIARVNPSRHIDFDP | failed
16 | MARMGGKKHLKALVAPKFWPILRKEYKWAVKPSPGPHPIERCFPLLIIVRDILGYAKTAREARKLISEGHFKVDGRVRKNYKYPVGLMDVIEIVDTGETYRVIPVPVKVLGLIEIDKEEAKYKLSRIENKTTVKGGHIQLNLHDGRNVLIKVSDPKNPVEDIYKTLGTLQISIPEQQILNYIPLDEGTLVIISGGRNVGRVGKVVSIHKGIRRHRSIVTIEDKHGNKFQTSLTYVFPIGKEEPLIKLPEGAW | failed
17 | MADDKKKRNKKKKRSTGNKRKMTTEQSEAFKSITDWLILGSSPSLSSSSDDFAVNINSGSLRCGEKVVFELHSHSNRSDGFLSPSKVVERAYNNGVKVLSLTDHDTMAGVPEAVEAGRRFGIKIIPGIEISTLFGLRDSGSEEPVHILAYYGTSGPALYDELEDFLVKIRDGRFVRGREMVLKLNKLKIPLKWEHVTRIAGKDVAPGRMHVARALLEAGYVENLRQAFTKYLHDGGPAYATGTEPMAEEAVKLICKTGGVAVLAHPWALKNHVGIIRRLKDAGLHGVEVYRSDGKLEVFSELADTYNLLKLGGSDYHGKGGRNESELGSVNLPVTALQDFLNVGRPIWCEAIKATMRAFLDQPSDSNLSNILRFDKARILKGNSAWSCGKELMDRCLAIWLTSDERNSNDFEALRLKLSFVPIMSNGTCVTVGP | failed
18 | MPELSVILAGFGDALAPINLLFILFGVALGQFVGAVPGIGPVMATAIAIPFTFGMDPLTGIAFLVGVNKGGLVGGAIPAVLLNTPGTPDAAATALDGYPLAKQGKPLKATKMALFSSITGDTFSDIVLITVSAPMAILALRMGPVEVLGLMLLAFAVIAGLMGQSLVKGVVAIALGLMAAMVGTDPEHGSPRLIFGNYELYDGLPLASVAIGMLAISELLKRLSETRGTVRPAITLPRNQPRADRSVSWAEYWGCRFTMLRGAVIGTILGALPGIGSTAAAFMSYASARQASKEPESFGKGSLHGIAASESANSSVMGANMIPMLTLGIPGSVSAALIISAFMIHGIQPGPFLFSQQGQLVYGLFGAMIIANLINLWVGQLGLRFWVRVVSAPEPFIFASALLMCFVGVALASGGLFGIGVMLVFALLAYVMSAFGISVVVFIIAFFLGPRLEISLSQTLALLNGQPQKLLDYPFALVLMALALVTAVALARRRDTESETR | failed
19 | MKCNERDCNNDNGEEDEKDTNTTIAVKLPATTALIVGYDPIDDQHKALSLKRKRTEKLSFINALKGFVQWGSEAVFIEYKGKLASIDLETVKSLGALMDSKEPPAPVNLLF | failed
20 | MIPFPESRLAAQMSFVVEIDKLKTILRQTLLTDSSRRENDAEHSWHIATMAFLLAEYADEAVQIGRVARMLLIHDIVEIDAGDTFIHDEAGNEDKEERERKAAARLFGLLPPDQAAEYSALWQEYEARETADARFADALDRLQPLLHNFETEGGTWKPHGVTRAKVDKLLPRIEAGSKRLGAYARALVDEAVRRGYLAP | not failed
21 | MSSPYILVLYYSRHGATAEMARQIARGVEQGGFEARVRTVPAVSTECEAVAPDIPAEGALYATLEDLKNCAGLALGSPTRFGNMASPLKYFLDGTSSLWLTGSLVGKPAAVFTSTASLHGGQETTQLSMLLPLLHHGMLVLGIPYSEPALLETRGGGTPYGASHFAGADGKRSLDEHELTLCRALGKRLAETAGKLGS | not failed
22 | MASSTDQNLMDLSDKDTREKLSFWDRRVDPMAPLTDRQTDSILELRAAAEETLLPAELPIEDICSLSSRSLRSSFTAALPESTEEVLLQGFQMLELHNHRIETAQQFFSWFSKLQVQMDQDEASKYRKTRDVLNGYQEQCDAILNDVNTALDHLDSLQKQYLFVSTKTGTLHEACEQLLKEQSELVDLAESIQEKLSYFNELENINTKLNSPTLSVNSEGFVPMLSKLDECIEYVSSHPNFKDYPVYLTKFKQCLSKAMQLIKSHTVNTLQNLTGQLSKRDPLGAPSA | failed
